In the nanobody polyreactivity screen of Harvey et al. (2022):

Assay: yeast display, Sf9 membrane polyspecificity reagent, FACS + sequencing; frameworks hold sequencing errors
How it was run: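 A synthetic nanobody library was expressed on Saccharomyces cerevisiae BJ5465 by galactose induction for 36–48 hours. The library was stained for 1 hour at 4 °C with 10% biotinylated, detergent-solubilized Sf9 membrane reagent and enriched with streptavidin microbeads before FACS. Low and high (top ~1%) gates were set on anti-HA fluorescence for expression and streptavidin fluorescence for reagent binding, and each polyreactivity label reflects the gate of origin.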

| Sequence | polyreactivity (PSR sort gate) |
| --- | --- |
| QVQLVESGGGLVPAGGSLRLSCAASGRIFGWYAMGWYRQAPGKEREFVAAITVTGGSTYYADSVKGRFTISRDNAKNTVYLQMNSLKPEDTAVYYCAADRWYTRTGFDYWGQGTQVTVSS | low polyreactivity |
| QVQLVESGGGLVPAGGSLRLSCAASGRTFIKYAMGWYRQAPGKERELVAAISRSAGSTYYADSVKGRFTISRDNAKNTVYLQMNSLKPEDTAVYYCNAVTSSYLRFDYWGQGTQVSVSS | high polyreactivity |
| QVQLVESGGGLVQAAGSLRLICAASGLTFGANDMGWSRQAPGTERELVAAIDWSGGSTFFADSVKGRFTISRDNAKNTVYLQMNTLKPEDTAVYYCAALGFGYPYPEYDSWGQGTQVTVSA | low polyreactivity |
| QVQLVESGGGLVQAAGSLRLSCAASGFTFYSNVMGWYRQAPGKERELVAAITGRGSRTYYEDSVNGRFTISRDNAKNTVYLQMNSLKTEDTPVYYCAARYTNYGGYYWGQGTQVTVSS | high polyreactivity |
| QVQLVESGGGLVQAAGSLRLSCAASGFTIAHYAMGRYSHAPGKERELVAGISRSGGSTYYADSVKGRFTISRDNAKNTVYLQMNILKPEDTAVYYCATVTYLKRVRYQSGYDSWGQGTQVTVSS | low polyreactivity |
| QVQLVESGGGLVQAAGSLRLSCAASGITFGLYTMGWYRQAPGKERELVAAISWSGGGTYYADSVKGRFTISRDNAKNTVYLQMNSLKPEDTAVYYCAAPVRGSYPYSVGVDYWGQGTQVTVSS | high polyreactivity |
| QVQLVESGGGLVQAAGSLRLSCAASGITSRFYVMGWYRQAPGKERESVAAISTRGTSTYYADSVKGRLPISRDNAKNTVYLQMNSLKPEDTAVYYCAAVGGYPYQYPYGSWGQGSQVTVSS | high polyreactivity |
| QVQLVESGGGLVQAAGSLRLSCAASGRIFEIYAMGWYRQAPGKERELVAGITSVGSTNYADSVKGRFTISRDNAKNTVYLQMNSLKPVDTAVYYCAADTSVHSEVDYCGQGTQVTVSS | low polyreactivity |
| QVQLVESGGGLVQAAGSLRLSCAASGRIFKLYAMGWYRQAPGKDRELVAGITASGGNTYYADSVKGRFTISRDNAKNTVYLLMNSLKPEDTAVYYCNADRYNKYWYDYWGQGTQVTVSS | high polyreactivity |
| QVQLVESGGGLVQAAGSLRLSCAASGSIFDPNVMGWYRQAPGKERELVATISSDGTTTYADSVKGRFTISRDNAKNTVYLQMNSLKPEDTAVYYCATEWDIDPRRSVGYPIGYGYWGQGTQVTVSS | low polyreactivity |
| QVQLVESGGGLVQAAGSLRLSCAASGSIFSTYAMGWYRQAPGKERELVAAINRGTSTNYADSVKGRFTISRDNAKNTVYLQMNSLKPEDTAVYYCAAYYRGRYGPRRSEYWGQGTQVTVSS | high polyreactivity |
| QVQLVESGGGLVQAAGSLRLSCAASVIIFGLYTMGWYRQAPGKERELVAAISDSGGRTYYADSVKGRFTISLDNAKNTVFLQMNSLKPEDTAVYYCAAEFWYVWEYNYWGQGTQVTVSS | high polyreactivity |
| QVQLVESGGGLVQAAGSLRLSSAASGSIFDANANGWYRQPPGKERELVAAITSGGSTYYADSVKGRFTISRVNAKNTVYLQMNSLKPEDTAVYYCAAQYYDYKTTYDYWGKGTQVTVSS | high polyreactivity |
| QVQLVESGGGLVQAEGRLRLSCAASGRIFPHYAMGWYRQAPGKERELVAAISRSGVSTYYADSVKGRFTISRDIAKNTVYLQMNSLKPEDTAVYYCASRSYILGWRYDYWGQGTQVTVSS | high polyreactivity |
| QVQLVESGGGLVQAEGSLRLSCAASGRTSVLYAMGWNRQAPGKEREFVAAITWNSGSTYYADSVKGRFTISRDNAKNTVYIQMTRLKPEDTAVYYCNADYYFSSYRSTYDYWGQGTQVTVSS | low polyreactivity |
| QVQLVESGGGLVQAGAILRLICAASGRIFYRYAMGWYRQAPGKERELVAAISSGGGRTYYADSVKGRFTLSRDNAKNTVYLQMNSLKPEDTAVYYCAASGNSYEQTGGYWGQGTQVTVSS | high polyreactivity |
| QVQLVESGGGLVQAGASLRLSCAASGFISYYYAMGWYRQAPGKERELVAAITKSGGSTYYADSVKGRFTISRDNAKNTVYLQMNSLKREDTAVYYCAAVRSTRNSTSRLYGYWGQGTQVTVSS | low polyreactivity |
| QVQLVESGGGLVQAGASLRLSCAASGGIFAYYAMGWYRQAPGKERELVAAINRSGGSTRYADSVKGRFTNSRDNAKNTVFLQMNSLKPEETAVYYCATKRSTGYYWGQGTQVTVSS | high polyreactivity |
| QVQLVESGGGLVQAGASLRLSCAASGGILRQNTMGWYRQAPGKERELVAAISSSGGRTYYADSVKGRFTISRDNAKNTVYLQMNSLKPEDTAVYYCNVPAKRYPYYIRQSTVSPGNYWGQGTKVTVSS | high polyreactivity |
| QVQLVESGGGLVQAGASLRLSCAASGIIVHEYAMGWYRQAPGKERELVASISWNDGSTYADSVKGRFTISRDNAKITVYLQMNCLKPEDTAVYYCAADYPYYPFSSIYDYWGQGTQVTVSS | low polyreactivity |
| QVQLVESGGGLVQAGASLRLSCAASGITFDPNAMGWYRQAPGKERELVAAISTRGGSTYYADSVKGRFTISRDNAKNTVYLQMNSLKPEETAVYYCNALRTGRWFDYWGQGTQVTVSS | high polyreactivity |
| QVQLVESGGGLVQAGASLRLSCAASGNTFDVYAMGWYREAPGKERELVAAISRRGGSTSYADSVKGRFTISRDNAKNTFYFHMNSLKPEDTAVYYCNTDPGKYTPFDYLGQGTQVTVSS | high polyreactivity |

| Sequence | polyreactivity (PSR sort gate) |
| --- | --- |
| QVQLVESGGGLVQAGASLRLSCAASGRIYPVYTMGWYRQAPGKERELVAAITSSGGSTYYADSVKGSFTISRDNAKNTVYLQMNSLKPEDTAVYDCAKRAGWAYYYWGQGTQVTVSS | high polyreactivity |
| QVQLVESGGGLVQAGASLRLSCAASGRTFVGYAMGWYRQAPGKERELVAAISKSSGSTYYADSVKVRFTISRDNAKNTVYLQMNSLKPEDTAVYYCNAARRQCNRYTYDYWGQGTLVTVSS | high polyreactivity |
| QVQLVESGGGLVQAGASLRLSCAASGRTLGYYAMGWSRQEPGKERELVAAISRSGGSTYYADSVKGRFTISRDNAKNTVYLQINSLKPEDTAVYYCAATYGPSRYRYDYWGQGTQVTVSS | high polyreactivity |
| QVQLVESGGGLVQAGASLRLSCAASGSIFAAYTMGWYRQAPGTERELVAAISVSTVSTYYADSVKGRFTISRDNAKNTVFLQMNSLKAEVTAVYYCNADATDSYTEKDEHDSWGQGTQLTVSS | low polyreactivity |
| QVQLVESGGGLVQAGASLRLSCAASGSIFKDYAMGWYRQAPWKERDLLAAITSRTSTTYADSVKGRFTISRDNAKNTVYLQMNSLKPEDTAVYYCAVEDLGSEGWGWYKEMDYWGQGTQVTVSS | low polyreactivity |
| QVQLVESGGGLVQAGASLRLSCAASGSIFRGNAMGWYRQAPGKERQLVAAITRSGGRTYYADSVKGRFTISRDNAKNTVYLQMISMKPEDTAVYYCAAVSSYSRYRRTYYYWGHGTQVTVSS | high polyreactivity |
| QVQLVESGGGLVQAGASLRLSCAASGSTFDQYVMGWYRQAPCKERELVAAISRRGGSTYYADSVKGRFTISRDNEKNTVYLQMNSLQPEDTAVYYCAAPSYYRYDYWGQGTQVTVSS | high polyreactivity |
| QVQLVESGGGLVQAGASLRLSCAASGSTFPVYAMGWYRQAPGKERELVAAITGSGARTYYADSVKVRFTISRDNAKNTVYLQMNSLKPEDTAVYYCAKRTVIAVYGYPYRYGMNYWGQGTKVTVSS | high polyreactivity |
| QVQLVESGGGLVQAGASLRLSCSPSGRTFYYYAMGWYRPAPGKEREWVAAISQSGGSTYYADSVKGRFTISRDNAKKTVFLQMNSLKPEDTAVYYCKAYYGFGHRIYDFWGQGTQVTVSS | high polyreactivity |
| QVQLVESGGGLVQAGASLRLSSAASGSTFSRYAMGWYRQAPGKEREFVADITFRTSSTNYADSVKGRFTISRDNAKNTVYLQMNSLKPEDTAVYDCAADVIFTWLAYSTEYDYWGQGSQVTVSS | low polyreactivity |
| QVQLVESGGGLVQAGCILRLSCDASGRTFAPYAMGWYRQAPGKAWELVAAITNGGSPSYADSVKGRFTISRDNAKNTVYLEMNSLKREDTAVFYCAADIVSSTDYPFEYWGQGTQVTVSS | low polyreactivity |
| QVQLVESGGGLVQAGCRLRLSCAASGFIFCYNAMGLYRQAPGKERELVAAITTAGSTNYADSVKGRFTISRDNAKNTVYVQMNSLKPEDTAVYYCNKVQLRNRYPYRYGFGDVGYWGQGTQVTVSS | low polyreactivity |
| QVQLVESGGGLVQAGCRLRLSCAASGININAMGWYRQAPGKERELVAAISRGGSTYYADSVKGRFTISRDNAKNTVYLQMNSLKPEDTAVYYCAKLIGRWRLYHTFVKGDYWGQGTQVTVSS | high polyreactivity |
| QVQLVESGGGLVQAGCSILLSCAASGRIFDNYAMGWSRQAPGKERELVAASRYSDDATDYADSVKGRFTISRDNAKNTVYLQMNSLIPEDPAVYYCAADVKRYGWEYGYWGQGTQVTVSS | low polyreactivity |
| QVQLVESGGGLVQAGCSLGISCAASGSTVRGNAMGWYRQAPGKEREFVAAITVSGGSTYYADSVKGRFTLSRDNAKINVYVEMNSLKPEDNAVYYCAASVYKGWPTHYDYWGQGTQVTVSS | high polyreactivity |
| QVQLVESGGGLVQAGCSLLLICAASGRTFCFNTMGWYRQAPGKERELVASISGSGGRTYFADSVKGRFTISRDNEKNTVYFQMNSLKPEDTAVYYCAARRYSRDYDYWGQGTQVTVSS | high polyreactivity |
| QVQLVESGGGLVQAGCSLRCSCPDSGGIFTRYVMGWYRPAPGKEREMVAAISSRGGSTYYADSVKGRFTISRDNAKNTVYLQMNSLKPEDTAVYYSAAEQGRTSYRYYYWGQGTQVTVSS | high polyreactivity |
| QVQLVESGGGLVQAGCSLRISCSASGRTFIGYAMGSYRQAPGKERELVAAICRSGGSTYYADSVKGRFTISRDNAKNTVYLQMNSLKPEDTAVYYCAKQRRDDNGGYWGQATQVTVSS | high polyreactivity |
| QVQLVESGGGLVQAGCSLRLSCAAPGFTLKRYAMGWYRQAPGKERELVAAISRTGGSTYHADSVKGRFTITRDNAKNTVYLQMNSLKPEVTAVYYCAAATSPGIYDHWGQGTQLTVSS | high polyreactivity |
| QVQLVESGGGLVQAGCSLRLSCAASGATPQNAMGWYRQAPGKERELVAAISKRGGSTYYADSVKGRFTISRDNAKNTVYLQMISLKPEDTAVYYCAKSGRNYYDDDYWGQGTQVTVSS | high polyreactivity |
| QVQLVESGGGLVQAGCSLRLSCAASGFIFLTNGMGWYRQAPGTERELVAVITSSTGSTSYADSVKGRFTISRDIAKNTVYLQMNSLKPEDTAVYYCDDSTGVSWYYPSGSLDYWGQGTQVNVSS | low polyreactivity |
